Results taken from patent publication US20130266566A1 (AbbVie / Abbott, published 2013).
Changes are numbered by the printed parent chain.

T1: rat PAI-1 (rat, UniProt P20961 24-402)
T1 sequence: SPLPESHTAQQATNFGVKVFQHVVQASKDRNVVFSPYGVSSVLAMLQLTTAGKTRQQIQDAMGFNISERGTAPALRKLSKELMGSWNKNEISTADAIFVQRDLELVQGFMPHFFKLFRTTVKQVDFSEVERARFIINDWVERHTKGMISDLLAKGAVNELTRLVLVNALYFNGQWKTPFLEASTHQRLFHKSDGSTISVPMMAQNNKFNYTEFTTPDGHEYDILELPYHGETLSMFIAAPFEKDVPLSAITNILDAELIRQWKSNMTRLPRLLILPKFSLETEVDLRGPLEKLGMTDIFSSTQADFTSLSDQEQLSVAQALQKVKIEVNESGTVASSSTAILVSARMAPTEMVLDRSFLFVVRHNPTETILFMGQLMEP

T2: mouse PAI-1 (mouse, UniProt P22777 24-401)
T2 sequence: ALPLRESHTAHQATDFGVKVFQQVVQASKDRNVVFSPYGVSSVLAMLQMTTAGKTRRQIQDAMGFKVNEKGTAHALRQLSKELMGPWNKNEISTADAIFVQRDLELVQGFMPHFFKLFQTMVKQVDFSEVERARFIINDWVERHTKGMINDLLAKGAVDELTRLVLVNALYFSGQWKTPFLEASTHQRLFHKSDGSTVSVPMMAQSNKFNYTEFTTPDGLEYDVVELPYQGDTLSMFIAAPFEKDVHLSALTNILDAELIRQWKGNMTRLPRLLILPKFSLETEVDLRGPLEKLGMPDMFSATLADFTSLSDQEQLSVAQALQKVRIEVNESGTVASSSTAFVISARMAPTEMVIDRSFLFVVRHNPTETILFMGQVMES

B1: rabbit PAI-1 (other)
chain: SYPHQPQLTTAGETQQQIQAAMRFKIDEQSTAPALRHLHKELMGPWNKDEISTTDAIFVQRDLKLVQGFMPHFFRLFRTTVKQVDFSDVQRARFIINDWVERHTKGMISDLLGEGAMDQLTRLLLVNALYFNGQWKTPFSKSGTHHRLFHKSDGSTISVPMMAQTNKFNYTEFLTPDGHYYDILELPYHGETLSMFIAAPYEKQVPLSALTNILSAQLISQWKGNMTRVTRLLVLPKFSLESEVDLRAPLENLGMTDMFRPGQADFSNLSDQELLHVSRALQKVKIEVNESGTMASSSTVILVSARMAPEEIIMDRPFLFVVRHNPTGTILFLGQVMEL
B2: Antibody 16 scFv (scFv)
chain: QVQLVQSGAEVKKPGSSVKVSCKASGGTFSSYAISWVRQAPGQGLEWMGGIIPTFGTANYAQKFQGRVTITADESTSTAYMELSSLRSEDTAVYYCAREKRQWLEGHFDYWGRGTLVTVSSDIQMTQSPSTLSASVGDRVTITCRASESIYHSLAWYQQKPGKAPKLLIYKASSLASGVPSRFSGSRSGTEFTLTISSLQPDDFATYYCQQYSNYPLTFGGGTKVEIK
B3: Antibody 08 scFv (scFv)
chain: B2 chain with K100R, S149G, S153N
B4: Antibody 20 scFv (scFv)
chain: B2 chain with V5Q, S149G, S153E, K171R, N214D
B5: Antibody 20 IgG1, not germlined (antibody, V domains shown)
VH: QVQLQQSGAEVKKPGSSVKVSCKASGGTFSSYAISWVRQAPGQGLEWMGGIIPTFGTANYAQKFQGRVTITADESTSTAYMELSSLRSEDTAVYYCAREKRQWLEGHFDYWGRGTLVTVSS
VL: DIQMTQSPSTLSASVGDRVTITCRASEGIYHELAWYQQKPGKAPKLLIYRASSLASGVPSRFSGSRSGTEFTLTISSLQPDDFATYYCQQYSDYPLTFGGGTKVEIK
notes: IgG1; also called Ab 20
B6: Antibody 02 IgG4, not germlined (antibody, V domains shown)
VH: B5 VH with Q5V
VL: B5 VL with E32S, R50K, R66G
notes: IgG4; also called Ab 02
B7: Antibody 16 IgG1, not germlined (antibody, V domains shown)
VH: B5 VH with Q5V
VL: B5 VL with G28S, E32S, R50K, D93N
notes: IgG1; also called Ab 16
B8: Antibody 01 IgG4, not germlined (antibody, V domains shown)
VH: B5 VH with Q5V, T54I
VL: B5 VL with H31R, E32S, R50K, R66G, D93N
notes: IgG4; also called Ab 01
B9: Antibody 27 IgG1, not germlined (antibody, V domains shown)
VH: B5 VH with T28A, S85G, L116P
VL: B5 VL with T10F, V15I, E32N, V58A, R66G, E70D, D93N, V104L
notes: IgG1; also called Ab 27
B10: PICK167_A01-fgl IgG1 (antibody, V domains shown)
VH: B5 VH with Q5V, K100R
VL: DIQMTQSPSTLSASVGDRVTITCRASEGIYHNLAWYQQKPGKAPKLLIYKASSLASGVPSRFSGSRSGTEFTLTISSLQPDDFATYYCQQYSNYPLTFGGGTKVEIKR
B11: Antibody 15 scFv (scFv)
chain: QVQLQQSGAEVKKPGSSVKVSCKASGGTFSSYAISWVRQAPGQGLEWMGGIIPTFGTANYAQKFQGRVTITADESTSTAYMELSGLRSEDTAVYYCAREKRQWLEGHFDYWGRGTPVTVSSDIQMAQSPSFLSASIGDRVTITCRASEGIYHNLAWYQQKPGKAPKLLIYRASSLASGAPSRFSGSGSGTDFTLTISSLQPDDFATYYCQQYSNYPLTFGGGTKLEIR

Experiments:
[1] = molecular target: B7; test: competition binding assay: Antibody 16 IgG adsorbed to the plate, biotinylated active human PAI-1 plus a titration of the unlabelled competitor, streptavidin-Europium detection
[2] = molecular target: T3, active human PAI-1, recombinant, wild-type, non-glycosylated (E. coli) (human, UniProt P05121 24-402); test: cell-based or functional assay
cynomolgus PAI-1 [3] = molecular target: T4, cynomolgus PAI-1 (cynomolgus, UniProt P05121 24-402 (human entry), limits assumed); test: cell-based or functional assay
rat PAI-1 [4] = molecular target: T1, rat PAI-1; test: cell-based or functional assay
[5] = molecular target: T3, active human PAI-1, recombinant, …; test: cell-based or functional assay; remark: listed apart in the source
mouse PAI-1 [6] = molecular target: T2, mouse PAI-1; test: cell-based or functional assay
rat PAI-1 [7] = molecular target: T1, rat PAI-1; test: cell-based or functional assay; remark: listed apart in the source
mouse PAI-1 [8] = molecular target: T2, mouse PAI-1; test: cell-based or functional assay; remark: listed apart in the source
mouse PAI-1 [9] = molecular target: T2, mouse PAI-1; test: cell-based or functional assay; remark: listed apart in the source
cynomolgus PAI-1 [10] = molecular target: T4, cynomolgus PAI-1; test: cell-based or functional assay; remark: listed apart in the source
latent human PAI-1 = molecular target: T5, latent human PAI-1 (human, UniProt P05121 24-402); test: competition ELISA, IgG on plate, biotinylated active human PAI-1 against titrated unlabelled competitor
T5 construct: also called latent PAI-1

rabbit PAI-1 = molecular target: B1; test: as above
rat PAI-1 [11] = molecular target: T1, rat PAI-1; test: as above
mouse PAI-1 [12] = molecular target: T2, mouse PAI-1; test: as above
rat PAI-1 [13] = molecular target: T1, rat PAI-1; test: cell-based or functional assay; remark: listed apart in the source
[14] = molecular target: T3, active human PAI-1, recombinant, …; test: cell-based or functional assay; remark: listed apart in the source

B1
IC50 (read off the curve) [1]: ~3 nM

B2
IC50, human chromogenic assay (FIG. 2a) [2]: 3.6 nM | IC50, cyno chromogenic assay (FIG. 2b) (cynomolgus PAI-1 [3]): 0.8 nM | HT-1080 Exo PAI-1 (IC50 in nM) rat (rat PAI-1 [4]): 52.6 nM | HT-1080 Exo PAI-1 (IC50 in nM) human [5]: 16.9 nM | HT-1080 Exo PAI-1 (IC50 in nM) mouse (mouse PAI-1 [6]): 17.6 nM | Chromogenic (IC50 in nM) rat (rat PAI-1 [7]): 5.6 nM | Chromogenic (IC50 in nM) mouse (mouse PAI-1 [8]): 4.3 nM

B3
IC50, cyno chromogenic assay (FIG. 2b) (cynomolgus PAI-1 [3]): 0.8 nM | IC50, mouse chromogenic assay (FIG. 2d) (mouse PAI-1 [9]): 2.6 nM | HT-1080 Exo PAI-1 (IC50 in nM) mouse (mouse PAI-1 [6]): 26.2 nM | Chromogenic (IC50 in nM) cyno (cynomolgus PAI-1 [10]): 1 nM | Chromogenic IC50 ratio cyno/human (cynomolgus PAI-1 [10]): 0.3 fold

B4
HT-1080 Exo PAI-1 (IC50 in nM) rat (rat PAI-1 [4]): 42.4 nM | HT-1080 Exo PAI-1 (IC50 in nM) human [5]: 19.1 nM | HT-1080 Exo PAI-1 (IC50 in nM) mouse (mouse PAI-1 [6]): 18.1 nM | Chromogenic (IC50 in nM) cyno (cynomolgus PAI-1 [10]): 1.3 nM | Chromogenic (IC50 in nM) mouse (mouse PAI-1 [8]): 4.9 nM

B5
IC50 ratio latent/wt (latent human PAI-1): 7.5 fold | IC50 ratio rabbit/wt (rabbit PAI-1): 9.1 fold | IC50 ratio rat/wt (rat PAI-1 [11]): 2.3 fold | IC50 ratio mouse/wt (mouse PAI-1 [12]): 7.6 fold | Chromogenic IC50 ratio rat/human (rat PAI-1 [7]): 1.8 fold | Chromogenic IC50 ratio cyno/human (cynomolgus PAI-1 [10]): 0.5 fold | Chromogenic IC50 ratio mouse/human (mouse PAI-1 [8]): 0.9 fold

B6
IC50 ratio rabbit/wt (rabbit PAI-1): 4.8 fold

B7
IC50 ratio rabbit/wt (rabbit PAI-1): 7.9 fold

B8
IC50 ratio rabbit/wt (rabbit PAI-1): 9 fold

B9
IC50 ratio latent/wt (latent human PAI-1): 6.8 fold | IC50 ratio rabbit/wt (rabbit PAI-1): 85 fold | IC50 ratio rat/wt (rat PAI-1 [11]): 1.2 fold | IC50 ratio mouse/wt (mouse PAI-1 [12]): 6.1 fold | Chromogenic IC50 ratio rat/human (rat PAI-1 [7]): 5.4 fold | Chromogenic IC50 ratio mouse/human (mouse PAI-1 [8]): 3.3 fold

B10
pIC50, HT1080 plasminogen activation assay (rat PAI-1 [13]): 7.64 pIC50 | pIC50, HT1080 plasminogen activation assay [2]: 7.87 pIC50

B11
HT-1080 Exo PAI-1 (IC50 in nM) rat (rat PAI-1 [4]): 57 nM | HT-1080 Exo PAI-1 (IC50 in nM) human [5]: 36 nM | HT-1080 Exo PAI-1 (IC50 in nM) mouse (mouse PAI-1 [6]): 37 nM | Chromogenic (IC50 in nM) rat (rat PAI-1 [7]): 64.2 nM | Chromogenic IC50 ratio rat/human (rat PAI-1 [7]): 8.9 fold | Chromogenic (IC50 in nM) human [14]: 7.2 nM | Chromogenic (IC50 in nM) cyno (cynomolgus PAI-1 [10]): 2.2 nM | Chromogenic IC50 ratio cyno/human (cynomolgus PAI-1 [10]): 0.3 fold | Chromogenic (IC50 in nM) mouse (mouse PAI-1 [8]): 66.9 nM | Chromogenic IC50 ratio mouse/human (mouse PAI-1 [8]): 9.3 fold
